The source of these data is US20150258192A1, “COMPOSITIONS AND METHODS FOR PREVENTING OR TREATING CHRONIC LUNG ALLOGRAFT DYSFUNCTION (CLAD) AND IDIOPATHIC PULMONARY FIBROSIS (IPF)” (priority 2014, published 2015).

No end group written: not given here.

What all share (test): Kinase Profiling Assay
Holding throughout (assay type): biochemical
Details in all cases: peptide 100 μM

Assay [1] has as its target CSK(h) (Homo sapiens, UniProt P41240). The procedure, abridged:
(§1)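 Kinase inhibition by MK2 inhibitory peptides was profiled radiometrically, with substrate phosphorylation from labeled ATP read by scintillation after capture on a charged filter. Values are relative to 100% activity and measured in duplicate.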

Assay [2] addresses Fer(h) (Homo sapiens, UniProt P16591). The procedure, abridged:
as §1

Assay [3] concerns the target Fms(Y969C)(h) (Homo sapiens, UniProt P07333, Y969C). The procedure, abridged:
as §1

Assay [4] concerns the target T1, HIPK2(h) (Homo sapiens, UniProt Q9H2X6).
T1 construct: purchased Millipore
The procedure, abridged:
as §1

Assay [5] deals with T2, Haspin(h) (Homo sapiens, UniProt Q8TF76).
T2 construct: purchased Millipore
T2 sequence (Q8TF76 1-798): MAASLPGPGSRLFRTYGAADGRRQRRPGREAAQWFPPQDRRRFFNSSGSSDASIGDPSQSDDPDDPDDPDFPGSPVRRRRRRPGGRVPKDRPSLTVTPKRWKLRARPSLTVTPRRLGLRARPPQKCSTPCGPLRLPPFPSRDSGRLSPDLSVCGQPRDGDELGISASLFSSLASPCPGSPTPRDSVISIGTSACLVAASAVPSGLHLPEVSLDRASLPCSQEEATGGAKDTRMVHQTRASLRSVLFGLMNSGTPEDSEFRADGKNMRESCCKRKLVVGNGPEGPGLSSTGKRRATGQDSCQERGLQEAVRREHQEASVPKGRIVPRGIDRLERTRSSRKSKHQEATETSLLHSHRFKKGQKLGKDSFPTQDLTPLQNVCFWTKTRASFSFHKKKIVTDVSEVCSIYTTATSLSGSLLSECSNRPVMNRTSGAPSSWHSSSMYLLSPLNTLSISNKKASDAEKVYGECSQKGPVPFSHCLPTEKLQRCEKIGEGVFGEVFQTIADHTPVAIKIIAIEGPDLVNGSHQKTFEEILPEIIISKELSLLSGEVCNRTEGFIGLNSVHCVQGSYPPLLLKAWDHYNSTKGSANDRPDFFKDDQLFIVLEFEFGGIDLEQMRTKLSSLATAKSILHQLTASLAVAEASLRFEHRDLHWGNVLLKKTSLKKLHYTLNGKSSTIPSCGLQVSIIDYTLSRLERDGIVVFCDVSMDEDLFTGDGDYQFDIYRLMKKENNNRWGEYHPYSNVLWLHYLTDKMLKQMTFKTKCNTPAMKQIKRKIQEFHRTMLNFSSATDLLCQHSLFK
The procedure, abridged: as §1

Assay [6] concerns the target T3, Hck(h) activated (Homo sapiens, UniProt P08631).
T3 construct: purchased Millipore
The procedure, abridged:
as §1

The target in assay [7] is T4, NEK7(h) (Homo sapiens, UniProt Q8TDX7).
T4 construct: purchased Millipore
T4 sequence (Q8TDX7 whole entry): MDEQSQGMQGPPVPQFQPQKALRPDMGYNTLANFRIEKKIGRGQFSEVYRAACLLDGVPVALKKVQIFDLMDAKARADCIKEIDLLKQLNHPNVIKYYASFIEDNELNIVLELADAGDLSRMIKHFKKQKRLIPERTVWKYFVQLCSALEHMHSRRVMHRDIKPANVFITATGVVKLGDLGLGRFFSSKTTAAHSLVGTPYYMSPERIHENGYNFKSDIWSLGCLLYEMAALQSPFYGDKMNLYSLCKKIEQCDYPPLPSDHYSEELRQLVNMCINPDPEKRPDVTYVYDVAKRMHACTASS
The procedure, abridged:
as §1

For assay [8], the target named is T5, PAK2(h) (Homo sapiens, UniProt Q13177).
T5 construct: purchased Millipore
T5 sequence (Q13177 whole entry): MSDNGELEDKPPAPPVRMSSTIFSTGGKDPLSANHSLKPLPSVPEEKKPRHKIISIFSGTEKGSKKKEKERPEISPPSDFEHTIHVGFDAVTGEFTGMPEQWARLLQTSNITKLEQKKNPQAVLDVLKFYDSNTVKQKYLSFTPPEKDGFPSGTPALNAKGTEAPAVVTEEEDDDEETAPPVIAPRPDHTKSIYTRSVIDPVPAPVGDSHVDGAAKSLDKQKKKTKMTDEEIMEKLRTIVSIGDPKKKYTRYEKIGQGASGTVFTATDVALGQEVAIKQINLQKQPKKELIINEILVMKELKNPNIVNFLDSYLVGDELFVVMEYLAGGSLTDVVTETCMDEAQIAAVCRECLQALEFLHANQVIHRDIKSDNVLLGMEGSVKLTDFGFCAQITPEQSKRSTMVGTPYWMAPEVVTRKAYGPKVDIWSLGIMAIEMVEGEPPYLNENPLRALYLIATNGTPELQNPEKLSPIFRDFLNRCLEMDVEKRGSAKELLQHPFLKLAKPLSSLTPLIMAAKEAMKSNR
The procedure, abridged: as §1

Assay [9] has as its target PKCβI(h) (Homo sapiens, UniProt P05771). The procedure, abridged: as §1
Assay [10] deals with T6, PKCι(h) (Homo sapiens, UniProt P41743).
T6 sequence (P41743 1-596): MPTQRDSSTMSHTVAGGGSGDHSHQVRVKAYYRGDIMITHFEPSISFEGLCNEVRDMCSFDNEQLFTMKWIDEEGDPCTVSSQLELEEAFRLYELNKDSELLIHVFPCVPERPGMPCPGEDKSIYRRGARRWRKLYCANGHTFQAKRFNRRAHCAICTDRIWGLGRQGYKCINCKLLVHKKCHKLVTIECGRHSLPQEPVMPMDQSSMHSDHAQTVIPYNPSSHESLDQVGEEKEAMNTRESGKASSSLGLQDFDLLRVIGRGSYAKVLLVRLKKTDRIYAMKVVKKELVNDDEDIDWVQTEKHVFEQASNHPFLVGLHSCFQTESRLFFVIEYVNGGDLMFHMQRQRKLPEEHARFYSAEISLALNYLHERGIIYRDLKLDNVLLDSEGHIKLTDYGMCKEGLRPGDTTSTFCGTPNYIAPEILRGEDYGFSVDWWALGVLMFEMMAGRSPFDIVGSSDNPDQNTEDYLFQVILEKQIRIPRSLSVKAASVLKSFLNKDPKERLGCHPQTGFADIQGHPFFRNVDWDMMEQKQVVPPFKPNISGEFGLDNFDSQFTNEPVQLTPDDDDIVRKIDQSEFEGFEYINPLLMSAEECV
The procedure, abridged: as §1

For assay [11], the target named is T7, SAPK2a(T106M)(h) (Homo sapiens, UniProt Q16539, T106M).
T7 construct: purchased Millipore
T7 sequence (Q16539 whole entry T106M): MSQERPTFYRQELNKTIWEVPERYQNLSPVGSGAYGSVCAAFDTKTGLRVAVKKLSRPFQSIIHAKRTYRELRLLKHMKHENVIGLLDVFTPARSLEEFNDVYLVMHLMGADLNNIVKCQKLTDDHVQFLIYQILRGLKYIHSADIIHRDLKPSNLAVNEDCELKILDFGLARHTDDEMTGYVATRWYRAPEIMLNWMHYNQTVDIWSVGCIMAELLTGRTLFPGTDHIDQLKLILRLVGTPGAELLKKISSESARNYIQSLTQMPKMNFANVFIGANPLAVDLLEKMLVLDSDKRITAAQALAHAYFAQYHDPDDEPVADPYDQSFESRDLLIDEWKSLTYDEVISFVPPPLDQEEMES
The procedure, abridged:
as §1

Assay [12] has as its target T8, Txk(h) (Homo sapiens, UniProt P42681).
T8 sequence (P42681 1-527): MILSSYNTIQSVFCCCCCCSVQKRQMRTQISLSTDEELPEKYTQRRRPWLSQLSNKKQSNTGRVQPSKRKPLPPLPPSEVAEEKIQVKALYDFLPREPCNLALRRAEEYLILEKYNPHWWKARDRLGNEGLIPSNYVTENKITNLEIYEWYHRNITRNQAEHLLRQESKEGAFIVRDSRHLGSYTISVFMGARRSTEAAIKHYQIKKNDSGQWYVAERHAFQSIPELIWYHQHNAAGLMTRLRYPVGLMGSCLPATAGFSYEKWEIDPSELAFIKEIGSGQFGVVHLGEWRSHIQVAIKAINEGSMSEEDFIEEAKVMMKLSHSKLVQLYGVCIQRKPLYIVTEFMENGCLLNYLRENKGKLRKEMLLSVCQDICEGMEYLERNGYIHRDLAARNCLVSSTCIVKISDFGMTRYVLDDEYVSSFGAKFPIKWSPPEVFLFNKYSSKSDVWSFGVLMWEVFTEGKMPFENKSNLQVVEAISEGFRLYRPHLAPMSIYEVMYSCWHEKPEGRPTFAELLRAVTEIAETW
The procedure, abridged: as §1

In assay [13] the target is VRK2(h) (Homo sapiens, UniProt Q86Y07). The procedure, abridged:
as §1

The target of assay [14] is T9, mTOR/FKBP12(h) (Homo sapiens, UniProt P42345).
T9 construct: purchased Millipore
The procedure, abridged: as §1

Chain of PKCβI(h) (P05771 whole entry): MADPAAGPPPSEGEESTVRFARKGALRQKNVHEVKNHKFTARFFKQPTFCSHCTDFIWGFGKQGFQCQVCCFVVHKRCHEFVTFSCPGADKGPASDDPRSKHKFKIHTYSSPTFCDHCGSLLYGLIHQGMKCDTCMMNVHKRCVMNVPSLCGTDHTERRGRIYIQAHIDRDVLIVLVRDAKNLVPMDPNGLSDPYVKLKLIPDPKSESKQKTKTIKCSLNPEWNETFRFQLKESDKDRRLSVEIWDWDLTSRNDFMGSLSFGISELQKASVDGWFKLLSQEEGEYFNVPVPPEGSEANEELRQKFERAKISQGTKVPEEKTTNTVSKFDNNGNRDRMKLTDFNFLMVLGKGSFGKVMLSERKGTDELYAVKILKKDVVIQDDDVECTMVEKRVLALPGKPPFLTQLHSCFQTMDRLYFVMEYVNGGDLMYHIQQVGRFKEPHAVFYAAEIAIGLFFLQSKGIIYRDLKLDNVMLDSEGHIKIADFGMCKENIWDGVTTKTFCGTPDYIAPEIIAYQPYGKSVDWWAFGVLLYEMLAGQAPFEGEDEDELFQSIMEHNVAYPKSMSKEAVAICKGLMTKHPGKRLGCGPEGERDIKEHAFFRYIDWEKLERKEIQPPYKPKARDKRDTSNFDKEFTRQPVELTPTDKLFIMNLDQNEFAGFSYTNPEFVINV
Chain of CSK(h) (P41240 whole entry): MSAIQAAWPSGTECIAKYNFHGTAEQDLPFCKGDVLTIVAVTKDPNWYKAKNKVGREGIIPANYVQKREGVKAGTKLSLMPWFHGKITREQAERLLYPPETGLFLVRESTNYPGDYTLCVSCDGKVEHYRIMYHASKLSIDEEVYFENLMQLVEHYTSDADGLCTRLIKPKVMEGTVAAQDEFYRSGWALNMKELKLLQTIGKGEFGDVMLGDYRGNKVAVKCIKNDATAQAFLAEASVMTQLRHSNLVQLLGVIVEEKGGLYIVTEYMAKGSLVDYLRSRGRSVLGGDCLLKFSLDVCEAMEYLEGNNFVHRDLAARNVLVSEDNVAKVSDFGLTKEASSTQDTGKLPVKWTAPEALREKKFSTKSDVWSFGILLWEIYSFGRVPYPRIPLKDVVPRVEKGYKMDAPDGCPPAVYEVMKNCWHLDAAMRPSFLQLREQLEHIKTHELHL
T1 sequence (Q9H2X6 whole entry): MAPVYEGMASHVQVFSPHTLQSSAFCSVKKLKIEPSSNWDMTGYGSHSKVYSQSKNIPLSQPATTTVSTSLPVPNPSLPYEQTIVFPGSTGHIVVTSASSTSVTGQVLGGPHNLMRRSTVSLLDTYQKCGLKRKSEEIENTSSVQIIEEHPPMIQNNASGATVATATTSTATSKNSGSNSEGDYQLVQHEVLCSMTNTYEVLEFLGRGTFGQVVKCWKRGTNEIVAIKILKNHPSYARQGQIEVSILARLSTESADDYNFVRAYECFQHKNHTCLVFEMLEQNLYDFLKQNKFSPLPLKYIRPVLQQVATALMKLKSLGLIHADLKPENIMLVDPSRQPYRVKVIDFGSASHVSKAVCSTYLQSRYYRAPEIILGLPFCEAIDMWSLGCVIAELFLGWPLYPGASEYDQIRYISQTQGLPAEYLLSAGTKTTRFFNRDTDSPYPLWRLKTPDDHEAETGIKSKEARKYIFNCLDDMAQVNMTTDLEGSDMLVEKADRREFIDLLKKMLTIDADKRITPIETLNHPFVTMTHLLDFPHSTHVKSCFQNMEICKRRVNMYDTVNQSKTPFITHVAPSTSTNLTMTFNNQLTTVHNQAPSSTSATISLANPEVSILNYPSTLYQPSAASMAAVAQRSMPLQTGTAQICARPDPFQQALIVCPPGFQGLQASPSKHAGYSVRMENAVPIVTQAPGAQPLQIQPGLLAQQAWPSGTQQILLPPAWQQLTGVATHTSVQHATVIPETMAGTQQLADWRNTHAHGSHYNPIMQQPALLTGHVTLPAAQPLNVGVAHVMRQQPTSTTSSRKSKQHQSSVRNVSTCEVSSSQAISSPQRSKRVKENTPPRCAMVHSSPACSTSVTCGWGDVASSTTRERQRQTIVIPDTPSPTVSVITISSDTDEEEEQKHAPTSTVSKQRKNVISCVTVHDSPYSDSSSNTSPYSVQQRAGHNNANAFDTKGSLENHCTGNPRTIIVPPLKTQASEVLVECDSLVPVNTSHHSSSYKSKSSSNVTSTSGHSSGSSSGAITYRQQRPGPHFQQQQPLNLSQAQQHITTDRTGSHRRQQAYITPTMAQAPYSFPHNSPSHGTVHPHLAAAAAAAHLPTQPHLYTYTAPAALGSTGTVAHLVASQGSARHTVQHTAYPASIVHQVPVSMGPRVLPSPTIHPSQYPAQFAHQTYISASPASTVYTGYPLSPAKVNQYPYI
Chain of Fer(h) (P16591 whole entry): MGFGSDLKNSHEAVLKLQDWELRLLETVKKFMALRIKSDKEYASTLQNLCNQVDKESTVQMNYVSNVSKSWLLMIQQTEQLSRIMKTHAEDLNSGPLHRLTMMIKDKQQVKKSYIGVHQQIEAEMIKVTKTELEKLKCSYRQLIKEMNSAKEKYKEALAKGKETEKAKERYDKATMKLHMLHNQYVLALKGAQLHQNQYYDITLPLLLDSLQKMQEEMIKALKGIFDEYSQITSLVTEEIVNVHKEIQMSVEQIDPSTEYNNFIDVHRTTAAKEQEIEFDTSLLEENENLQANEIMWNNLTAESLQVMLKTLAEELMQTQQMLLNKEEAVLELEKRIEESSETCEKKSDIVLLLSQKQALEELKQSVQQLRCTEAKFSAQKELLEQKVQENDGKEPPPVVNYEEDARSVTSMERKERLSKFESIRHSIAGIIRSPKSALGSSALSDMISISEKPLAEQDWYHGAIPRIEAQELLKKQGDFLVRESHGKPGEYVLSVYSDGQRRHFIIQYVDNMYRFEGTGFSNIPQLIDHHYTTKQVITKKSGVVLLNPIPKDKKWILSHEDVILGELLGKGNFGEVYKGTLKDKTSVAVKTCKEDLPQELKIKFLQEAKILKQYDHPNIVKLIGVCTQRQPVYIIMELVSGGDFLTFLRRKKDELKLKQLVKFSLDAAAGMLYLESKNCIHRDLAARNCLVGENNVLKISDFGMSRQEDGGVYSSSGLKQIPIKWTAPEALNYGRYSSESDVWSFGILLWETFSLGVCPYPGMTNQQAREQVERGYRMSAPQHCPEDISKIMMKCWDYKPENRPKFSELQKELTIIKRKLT
T3 sequence (P08631 whole entry): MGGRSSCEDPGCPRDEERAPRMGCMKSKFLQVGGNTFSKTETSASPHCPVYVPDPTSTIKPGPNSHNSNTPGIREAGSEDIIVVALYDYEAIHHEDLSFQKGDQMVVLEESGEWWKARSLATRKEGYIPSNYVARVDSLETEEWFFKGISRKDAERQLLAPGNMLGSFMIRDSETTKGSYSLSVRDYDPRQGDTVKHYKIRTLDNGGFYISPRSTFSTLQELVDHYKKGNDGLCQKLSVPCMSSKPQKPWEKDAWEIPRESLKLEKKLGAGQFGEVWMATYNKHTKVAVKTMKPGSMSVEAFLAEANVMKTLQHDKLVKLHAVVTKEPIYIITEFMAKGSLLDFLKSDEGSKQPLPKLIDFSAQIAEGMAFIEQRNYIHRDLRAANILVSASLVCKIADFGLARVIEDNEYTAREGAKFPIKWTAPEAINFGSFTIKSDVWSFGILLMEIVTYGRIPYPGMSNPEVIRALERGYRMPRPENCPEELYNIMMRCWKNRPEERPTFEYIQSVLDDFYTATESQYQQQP

Regarding KAFAKLAARLYRKALARQLGVAA [MMI-0400], the “% activity” value in assay [1] is 16%; in [2] it was 108%; in [3] it was 91%; in [4] it was 90%; in assay [5], 36%; in assay [6], 81%. Besides, the “% activity” value in assay [7] was found to be 87%; in assay [8], 59%; in assay [9], 78%; in assay [10], 46%; in assay [11], 99%; in [12], 37%. Also, the entries for the “% activity” value in assay [13] and in assay [14] were 185% and 125%, respectively.
In the case of FAKLAARLYRKALARQLGVAA [MMI-0300], the “% activity” value is 49% in [1]; 130% in [2]; 72% in [3]; 73% in assay [4]; 48% in assay [5]; 82% in assay [6]. Also, the “% activity” value in [7] is 84%; in assay [8] it was 65%; in assay [9], 78%; in assay [10], 68%; in [11], 97%; in assay [12], 48%. In addition, the “% activity” value in assay [13] is on record as 161%; in assay [14] it was 145%.
Take YARAAARQARAKALARQLGVAA [MMI-0100]: the “% activity” value was 126% in assay [3]; 98% in assay [4]; 127% in assay [5]; 71% in [8]; 110% in assay [10]; 101% in [11]. In addition, in assay [12], the “% activity” value was found to be 87%.
“HRRIKAWLKKIKALARQLGVAA (Mammal) [MMI-0500]”: the “% activity” value in assay [1] is listed as 2%; in [2] it was 196%; in assay [4], 38%; in [5] it was 25%; in assay [6] it was 67%; in assay [7], 89%. For the same sequence, the “% activity” value in [8] is 44%; in assay [9], 1%; in assay [10], 7%; in assay [11], 32%; in assay [12], 10%; in assay [13], 169%. Further, in assay [14], the “% activity” value came out at 140%.
In the case of “YARAAARQARAKALNRQLGVA (Mammal) [MMI-0200]”, the “% activity” value is listed as 33% in assay [1]; 101% in [2]; 88% in assay [3]; 71% in assay [5]; 100% in assay [6]; 96% in [7]. The “% activity” value in assay [8] came out at 69%; in [9], 98%; in [10], 97%; in [11] it was 100%; in assay [12], 98%; in [14] it was 118%.
